According to paper PMC4358659, “The functional interactome of PYHIN immune regulators reveals IFIX is a sensor of viral DNA”:

Key:
GST-IFIX-HIN200 [1] = target: T1, GST-IFIX-HIN200 (human, UniProt Q6K0P9 200-492); assay: EMSA; 2 pmol protein, 20 fmol DNA; EMSA: 10 mM Tris pH 7.5, 50 mM KCl, 1 mM DTT, 50 μg/ml BSA, ambient temperature, 30 min; conditions: protein: recombinant; tags: N-terminal GST (pGEX-4T1); label: 5'-biotin on sense strand; blunt
T1 sequence: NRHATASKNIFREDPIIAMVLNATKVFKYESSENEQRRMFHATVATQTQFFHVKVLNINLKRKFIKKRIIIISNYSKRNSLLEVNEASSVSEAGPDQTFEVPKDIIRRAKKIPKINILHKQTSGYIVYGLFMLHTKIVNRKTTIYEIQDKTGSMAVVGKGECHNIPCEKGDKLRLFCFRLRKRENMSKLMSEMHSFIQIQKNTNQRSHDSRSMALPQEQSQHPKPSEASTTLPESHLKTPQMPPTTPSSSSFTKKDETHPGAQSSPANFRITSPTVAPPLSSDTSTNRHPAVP

GST-IFIX-HIN200 [2] = target: T1, GST-IFIX-HIN200; assay: competition; unlabeled ISD competes with biotinylated ISD (EMSA); EMSA: 10 mM Tris pH 7.5, 50 mM KCl, 1 mM DTT, 50 μg/ml BSA, ambient temperature, 30 min; conditions: protein: recombinant; tags: N-terminal GST (pGEX-4T1); blunt

B1: ISD (biotinylated) (dsDNA)
DNA 1: TACAGATCTACTAGTGATCTATGACTGATCTGTACATGATCTACA
DNA 2: TGTAGATCATGTACAGATCAGTCATAGATCACTAGTAGATCTGTA
binding result (GST-IFIX-HIN200 [1]): binds

B2: ISD (unlabeled competitor) (dsDNA)
DNA 1: B1 DNA 1
DNA 2: B1 DNA 2
binding result (GST-IFIX-HIN200 [2]): binds
